Test results taken from the supplement of paper PMC12042874.
± gives the uncertainty stated by the source.

Assay: amyloid nucleation score (Sup35N fusion, yeast selection) (log enrichment); library NNK3; higher = more nucleation; inactive = no reads after selection
In short: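 Peptides of 20 random codons fused to Sup35N were expressed in psi-negative yeast, induced 24 hours with 100 μM copper sulfate, then grown 7 days at 30°C on medium lacking adenine and uracil. Input and output plasmid inserts were Illumina-sequenced. Nucleation score is the DiMSum log enrichment of output over input reads, centred on the mode score of non-aggregating sequences, excluding sequences with under 100 input reads. Random libraries had three technical output replicates.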

**Q.** Which amyloid nucleation score does the source give for WRVLKADDYFFFWWASCFAY here?
**A.** The amyloid nucleation score was “inactive”.

**Q.** Which amyloid nucleation score does the source give for WLVFKSVFVDRM here?
**A.** The amyloid nucleation score was “inactive”.

**Q.** Which amyloid nucleation score does the source give for YVVVCSCAWS here?
**A.** The amyloid nucleation score was 2.63 ± 0.074.

**Q.** For AVAHA, which amyloid nucleation score is on record?
**A.** The amyloid nucleation score was “inactive”.

**Q.** Which amyloid nucleation score does the source give for TTDFSNMLDLSGVKVSGVLP here?
**A.** Its amyloid nucleation score is “inactive”.

**Q.** For WSEHGQWMYNRLCGSGFISH, which amyloid nucleation score is on record?
**A.** The amyloid nucleation score was “inactive”.

**Q.** For KTHTPTVQMEL, which amyloid nucleation score is on record?
**A.** The amyloid nucleation score was “inactive”.

**Q.** For FVVWCDVTGS, which amyloid nucleation score is on record?
**A.** The amyloid nucleation score was “inactive”.

**Q.** With HHLNSYFRISFI as the substance, how does the amyloid nucleation score read?
**A.** The amyloid nucleation score was “inactive”.

**Q.** With LGNSAKVVLRWVEGVGLGVA as the substance, how does the amyloid nucleation score read?
**A.** Its amyloid nucleation score is “inactive”.

**Q.** Which amyloid nucleation score does the source give for FSTVKQLYCFMTPIYASFNS here?
**A.** The amyloid nucleation score was -0.531 ± 1.

**Q.** Which amyloid nucleation score does the source give for GDYSWSM here?
**A.** The amyloid nucleation score was 0.167 ± 0.42.

**Q.** Which amyloid nucleation score does the source give for KNGFRNVRKQRGAQKE here?
**A.** The amyloid nucleation score was “inactive”.

**Q.** For MSFRRIFSSLIYSLRRSSAN, which amyloid nucleation score is on record?
**A.** Its amyloid nucleation score is “inactive”.

**Q.** With PSINWASVTVLGCAHSNFRC as the substance, how does the amyloid nucleation score read?
**A.** Its amyloid nucleation score is 2.29 ± 0.064.

**Q.** Which amyloid nucleation score does the source give for SIMIVLCGKLTLNFSLRNVV here?
**A.** The amyloid nucleation score was “inactive”.

**Q.** Which amyloid nucleation score does the source give for NAHLRCMTTILGLFQTFGRG here?
**A.** The amyloid nucleation score was 2.02 ± 0.063.

**Q.** Which amyloid nucleation score does the source give for SAYYYGKY here?
**A.** Its amyloid nucleation score is “inactive”.

**Q.** For YFLGWRYQCDIVIFWYQLRV, which amyloid nucleation score is on record?
**A.** The amyloid nucleation score was “inactive”.

**Q.** Which amyloid nucleation score does the source give for MRSSIPIYVLMLIALSENSP here?
**A.** The amyloid nucleation score was “inactive”.

**Q.** With GASSIFLIVRSDGSYFSPD as the substance, how does the amyloid nucleation score read?
**A.** Its amyloid nucleation score is “inactive”.

**Q.** Which amyloid nucleation score does the source give for SWDYSKRNCSVEKVWTELNF here?
**A.** The amyloid nucleation score was “inactive”.

**Q.** For TAYSLMSIVFGWQPPKCGYE, which amyloid nucleation score is on record?
**A.** Its amyloid nucleation score is 0.648 ± 0.2.

**Q.** For IYGWGRRFRTRR, which amyloid nucleation score is on record?
**A.** The amyloid nucleation score was “inactive”.

**Q.** For CVVGDPSGVK, which amyloid nucleation score is on record?
**A.** Its amyloid nucleation score is 0.62 ± 0.13.

**Q.** For SSALRMYVCSAWG, which amyloid nucleation score is on record?
**A.** The amyloid nucleation score was “inactive”.

**Q.** For YQMTNCSLFFTTLYSVNYDY, which amyloid nucleation score is on record?
**A.** The amyloid nucleation score was 2.81 ± 0.082.

**Q.** Which amyloid nucleation score does the source give for RYLGWFLKCTACRDHSEFII here?
**A.** The amyloid nucleation score was “inactive”.

**Q.** With NCGRNRNPPTESCPEVGPRL as the substance, how does the amyloid nucleation score read?
**A.** The amyloid nucleation score was “inactive”.

**Q.** With IGFRWY as the substance, how does the amyloid nucleation score read?
**A.** Its amyloid nucleation score is “inactive”.

**Q.** With RAYTDV as the substance, how does the amyloid nucleation score read?
**A.** Its amyloid nucleation score is “inactive”.

**Q.** For LDILVRETDQSLWDFQLSSV, which amyloid nucleation score is on record?
**A.** The amyloid nucleation score was 0.499 ± 0.13.

**Q.** With QWKSSLDWRRCW as the substance, how does the amyloid nucleation score read?
**A.** Its amyloid nucleation score is “inactive”.

**Q.** For PLRVRNQYRRLMISANQPDW, which amyloid nucleation score is on record?
**A.** Its amyloid nucleation score is “inactive”.

**Q.** For SSIVENGCNTERSPMIGCVS, which amyloid nucleation score is on record?
**A.** Its amyloid nucleation score is -0.576 ± 0.88.

**Q.** With NLCVYWYSWGRSWGDFVTGY as the substance, how does the amyloid nucleation score read?
**A.** The amyloid nucleation score was 0.269 ± 0.36.

**Q.** For IFSRLGFVCLIMFTC, which amyloid nucleation score is on record?
**A.** Its amyloid nucleation score is “inactive”.

**Q.** With TVTLRRYLSMERPYTSIFSI as the substance, how does the amyloid nucleation score read?
**A.** Its amyloid nucleation score is “inactive”.

**Q.** For SSVRMRISFMINGRQTA, which amyloid nucleation score is on record?
**A.** Its amyloid nucleation score is 0.833 ± 0.15.

**Q.** With VSTSVDYFYGGPWTLVFGCL as the substance, how does the amyloid nucleation score read?
**A.** Its amyloid nucleation score is 2.6 ± 0.072.

**Q.** For CNFERFALCDYLSVLFNFQR, which amyloid nucleation score is on record?
**A.** Its amyloid nucleation score is 1.54 ± 0.13.

**Q.** For SVSFVDSRLLYVKICLSALG, which amyloid nucleation score is on record?
**A.** Its amyloid nucleation score is “inactive”.

**Q.** For LVLDCMIMGMIIDSWYWPLN, which amyloid nucleation score is on record?
**A.** The amyloid nucleation score was “inactive”.

**Q.** With SVIYVLYKVW as the substance, how does the amyloid nucleation score read?
**A.** The amyloid nucleation score was “inactive”.

**Q.** For INNASRRPCNMHVDVYRLLR, which amyloid nucleation score is on record?
**A.** The amyloid nucleation score was “inactive”.

**Q.** For ANTGMWLRMFPCWAPWDRVE, which amyloid nucleation score is on record?
**A.** Its amyloid nucleation score is “inactive”.

**Q.** Which amyloid nucleation score does the source give for EVVGVYRERMSSFLLQGVLL here?
**A.** Its amyloid nucleation score is -0.042 ± 0.98.

**Q.** Which amyloid nucleation score does the source give for KKRGHEWFVIIKSARGASKR here?
**A.** Its amyloid nucleation score is “inactive”.

**Q.** With ELIKCFFYYNDVGV as the substance, how does the amyloid nucleation score read?
**A.** Its amyloid nucleation score is “inactive”.

**Q.** Which amyloid nucleation score does the source give for GYFSLPIGGVVRTGVMLDE here?
**A.** The amyloid nucleation score was “inactive”.

**Q.** Which amyloid nucleation score does the source give for RYSVARIRCTTGNVDVYV here?
**A.** The amyloid nucleation score was -0.281 ± 1.2.

**Q.** For MRSMVKLSCDERVCFVISGE, which amyloid nucleation score is on record?
**A.** Its amyloid nucleation score is “inactive”.

**Q.** For MNFVPTLRSIVVGRWRDLEV, which amyloid nucleation score is on record?
**A.** Its amyloid nucleation score is “inactive”.

**Q.** Which amyloid nucleation score does the source give for PYWIGNIFVEPSSD here?
**A.** The amyloid nucleation score was “inactive”.

**Q.** For SKRVSALRHKIRKNCVMNFD, which amyloid nucleation score is on record?
**A.** The amyloid nucleation score was “inactive”.

**Q.** Which amyloid nucleation score does the source give for ETYYFSVGFFY here?
**A.** Its amyloid nucleation score is “inactive”.

**Q.** For NCSELGSS, which amyloid nucleation score is on record?
**A.** Its amyloid nucleation score is “inactive”.

**Q.** Which amyloid nucleation score does the source give for FSRTSCVGDCYCGAYNRLSG here?
**A.** The amyloid nucleation score was 2.02 ± 0.095.

**Q.** Which amyloid nucleation score does the source give for LVVLLFVFI here?
**A.** The amyloid nucleation score was “inactive”.

**Q.** For FVGYINILLIADSALGVRIL, which amyloid nucleation score is on record?
**A.** Its amyloid nucleation score is 1.64 ± 0.076.

**Q.** For NFLLVPYLSPKLDMGGYHLW, which amyloid nucleation score is on record?
**A.** The amyloid nucleation score was “inactive”.

**Q.** Which amyloid nucleation score does the source give for YPCNFYWFRNILADTPIQYD here?
**A.** Its amyloid nucleation score is “inactive”.

**Q.** With KTLTKSNIWIG as the substance, how does the amyloid nucleation score read?
**A.** Its amyloid nucleation score is -0.639 ± 0.87.

**Q.** With VFMGQDLWMSLGAEDEDLAW as the substance, how does the amyloid nucleation score read?
**A.** Its amyloid nucleation score is “inactive”.

**Q.** For RWKFYILVIYGVSASTFAQG, which amyloid nucleation score is on record?
**A.** The amyloid nucleation score was “inactive”.

**Q.** For FVRGTVWKSTGDVMDAVPAT, which amyloid nucleation score is on record?
**A.** Its amyloid nucleation score is “inactive”.

**Q.** With VTPSTGRSIVVTPGTYIARV as the substance, how does the amyloid nucleation score read?
**A.** Its amyloid nucleation score is “inactive”.

**Q.** Which amyloid nucleation score does the source give for AIVWPSYFIWFYSNESRKDR here?
**A.** Its amyloid nucleation score is “inactive”.

**Q.** For TDETSGRSLGVVWEHHAMNH, which amyloid nucleation score is on record?
**A.** Its amyloid nucleation score is “inactive”.

**Q.** With CGPHTSYRTMIVLNIRYNFY as the substance, how does the amyloid nucleation score read?
**A.** The amyloid nucleation score was 1.46 ± 0.099.

**Q.** With EMAEAGTFEGYSLSVSVSAD as the substance, how does the amyloid nucleation score read?
**A.** Its amyloid nucleation score is “inactive”.

**Q.** With LMIWVSDLSE as the substance, how does the amyloid nucleation score read?
**A.** Its amyloid nucleation score is “inactive”.

**Q.** With VSVVNYKVVHSSAEKVFSFS as the substance, how does the amyloid nucleation score read?
**A.** Its amyloid nucleation score is “inactive”.

**Q.** With DLTNEMQVCVNV as the substance, how does the amyloid nucleation score read?
**A.** Its amyloid nucleation score is -0.17 ± 0.88.

**Q.** Which amyloid nucleation score does the source give for LWNFYSDCNGVPQDESLVEG here?
**A.** Its amyloid nucleation score is “inactive”.

**Q.** Which amyloid nucleation score does the source give for KLVWRERICEDGFYIKTTFL here?
**A.** The amyloid nucleation score was “inactive”.

**Q.** For SMVNWFMLRTAVVVQSRVAV, which amyloid nucleation score is on record?
**A.** Its amyloid nucleation score is “inactive”.

**Q.** Which amyloid nucleation score does the source give for ICLYLRQVKLIAGAERKKVQ here?
**A.** Its amyloid nucleation score is “inactive”.

**Q.** Which amyloid nucleation score does the source give for NPLYVFDRI here?
**A.** Its amyloid nucleation score is -0.71 ± 0.53.

**Q.** Which amyloid nucleation score does the source give for VHLQGITSITVGIWPHKHLD here?
**A.** The amyloid nucleation score was “inactive”.
